# Experimental data from patent US20250353912A1 (published 2025).
# Where no end group is shown, it is not given here. [ ]: non-standard residue; d: D form.
# T1: KRAS(G12C) residues 4-18 peptide conjugated to AMG-510
# T1 peptide: YKLVVVGAC(AMG‑510)GVGKSA[dPEG4]K(long chain biotin)-NH2
# How the values were obtained:
# [1] = target: T1, KRAS(G12C) residues 4-18 peptide …; experiment: bead binding assay; apparent KD
# [2] = target: HLA-A*01:01 in complex with the BTK peptide … conjugated with Ibrutinib (human;, ibrutinib covalently bound to Cys); experiment: multiplex bead-binding assay
# CD3 on Jurkat cells = CD3 on Jurkat cells (UniProt P07766 23-207); experiment: cell binding, flow cytometry
# RAS-AMG510 = experiment: cell binding, flow cytometry (peptide-pulsed Raji cells); apparent KD
binder,measurement,setting,value
"P2AMR-1 in the human IgG1 format (antibody, V domains shown) VH: QVQLVQSEPEVKKPGSSVKLSCKASGGTFSTDAITWVRQAPGQGLEYMGGIIPLLDSVDYAQRFQGRVTVSADKSTGTAYMEVRSLGSEDTAKYYCAKWSSVDTGLDYWGQGTLVTVSS VL: QSVLIQPRSVSGSPGQSVTISCTGTSSDVGGYNYVSWYQQHPGKAPKLMIYDVSKRPSGVPDRFSGSKSGNTASLTVSGLQAEDEADYYCGSYADTDTIVFGTGTKLTVL",Kd,[1],0.2 nM
"IBA1-13 (antibody, V domains shown) VH: EVQLVESGGGLVQPGGSLRLSCAASGFTLSSSSIHWVRQAPGKGLEWVASIYSSYGYTYYADSVKGRFTISADTSKNTAYLQMNSLRAEDTAVYYCARYYYYWYGGMDYWGQGTLVTVSS VL: DIQMTQSPSSLSASVGDRVTITCRASQSVSSAVAWYQQKPGKAPKLLIYSASSLYSGVPSRFSGSRSGTDFTLTISSLQPEDFATYYCQQGHDMNPVTFGQGTKVEIKR",Kd,[2],0.137 nM
AMRA3-7D_CrossMab (bispecific antibody) EVQLLESGGGLVQPGGSLRLSCAASGFTFSTYAMNWVRQAPGKGLEWVSRIRSKYNNYATYYADSVKGRFTISRDDSKNTLYLQMNSLRAEDTAVYYCVRHGNFGNSYVSWFAYWGQGTLVTVSSASVAAPSVFIFPPSDEQLKSGTASVVCLLNNFYPREAKVQWKVDNALQSGNSQESVTEQDSKDSTYSLSSTLTLSKADYEKHKVYACEVTHQGLSSPVTKSFNRGEC heavy 1: not shown heavy 2: EVQLVESGGGLVQPGGSLRLSCAASGFTFSDYSIHWVRQAPGKGLEWVASISSSSGSTSYADSVKGRFTISADTSKNTAYLQMNSLRAEDTAVYYCARGGWYPAMDYWGQGTLVTVSSASTKGPSVFPLAPSSKSTSGGTAALGCLVEDYFPEPVTVSWNSGALTSGVHTFPAVLQSSGLYSLSSVVTVPSSSLGTQTYICNVNHKPSNTKVDEKVEPKSCDKTHTCPPCPAPEAAGGPSVFLFPPKPKDTLMISRTPEVTCVVVDVSHEDPEVKFNWYVDGVEVHNAKTKPREEQYNSTYRVVSVLTVLHQDWLNGKEYKCKVSNKALGAPIEKTISKAKGQPREPQVCTLPPSRDELTKNQVSLSCAVKGFYPSDIAVEWESNGQPENNYKTTPPVLDSDGSFFLVSKLTVDKSRWQQGNVFSCSVMHEALHNHYTQKSLSLSP light: DIQMTQSPSSLSASVGDRVTITCRASQSVSSAVAWYQQKPGKAPKLLIYSASSLYSGVPSRFSGSRSGTDFTLTISSLQPEDFATYYCQQISYVKKLITFGQGTKVEIKRTVAAPSVFIFPPSDRKLKSGTASVVCLLNNFYPREAKVQWKVDNALQSGNSQESVTEQDSKDSTYSLSSTLTLSKADYEKHKVYACEVTHQGLSSPVTKSFNRGEC,Kd,CD3 on Jurkat cells,200 nM
"IBA1-21 (antibody, V domains shown) VH: EVQLVESGGGLVQPGGSLRLSCAASGFTISSSSIHWVRQAPGKGLEWVASISSYYGYTSYADSVKGRFTISADTSKNTAYLQMNSLRAEDTAVYYCARYYSYSSGYGYYDYFDWGAMDYWGQGTLVTVSS VL: DIQMTQSPSSLSASVGDRVTITCRASQSVSSAVAWYQQKPGKAPKLLIYSASSLYSGVPSRFSGSRSGTDFTLTISSLQPEDFATYYCQQMQYSGWLITFGQGTKVEIKR",Kd,[2],0.04 nM
"IBA1-7 (antibody, V domains shown) VH: EVQLVESGGGLVQPGGSLRLSCAASGFTLSSSSIHWVRQAPGKGLEWVASISSYYGSTSYADSVKGRFTISADTSKNTAYLQMNSLRAEDTAVYYCARMHYSWQEYYSYDWGMDYWGQGTLVTVSS VL: DIQMTQSPSSLSASVGDRVTITCRASQSVSSAVAWYQQKPGKAPKLLIYSASSLYSGVPSRFSGSRSGTDFTLTISSLQPEDFATYYCQQSYWWKSLVTFGQGTKVEIKR",Kd,[2],170 nM
"IBA1-4 (antibody, V domains shown) VH: EVQLVESGGGLVQPGGSLRLSCAASGFTVSSSSIHWVRQAPGKGLEWVASIYSYSGSTYYADSVKGRFTISADTSKNTAYLQMNSLRAEDTAVYYCARQYSSSYYVWPGMDYWGQGTLVTVSS VL: DIQMTQSPSSLSASVGDRVTITCRASQSVSSAVAWYQQKPGKAPKLLIYSASSLYSGVPSRFSGSRSGTDFTLTISSLQPEDFATYYCQQYHYWASLITFGQGTKVEIKR",Kd,[2],0.65 nM
"IBA1-19 (antibody, V domains shown) VH: EVQLVESGGGLVQPGGSLRLSCAASGFTFSYSSIHWVRQAPGKGLEWVASIYPSSGYTSYADSVKGRFTISADTSKNTAYLQMNSLRAEDTAVYYCARGWWYWMAWDYAMDYWGQGTLVTVSS VL: DIQMTQSPSSLSASVGDRVTITCRASQSVSSAVAWYQQKPGKAPKLLIYSASSLYSGVPSRFSGSRSGTDFTLTISSLQPEDFATYYCQQSWMSDSLITFGQGTKVEIKR",Kd,[2],0.52 nM
"AMRA311-18 hIgG1 (antibody, V domains shown) VH: EVQLVESGGGLVQPGGSLRLSCAASGFTISSSSIHWVRQAPGKGLEWVASIYSSSGSTSYADSVKGRFTISADTSKNTAYLQMNSLRAEDTAVYYCARVYSSRYWGWGVAFDYWGQGTLVTVSS VL: DIQMTQSPSSLSASVGDRVTITCRASQSVSSAVAWYQQKPGKAPKLLIYSASSLYSGVPSRFSGSRSGTDFTLTISSLQPEDFATYYCQQWNWADYLVTFGQGTKVEIKR",Kd,RAS-AMG510,52 nM
"IBA1-8 (antibody, V domains shown) VH: EVQLVESGGGLVQPGGSLRLSCAASGFTISYSSIHWVRQAPGKGLEWVASIYPSYGSTSYADSVKGRFTISADTSKNTAYLQMNSLRAEDTAVYYCARWQGYYQPALDYWGQGTLVTVSS VL: DIQMTQSPSSLSASVGDRVTITCRASQSVSSAVAWYQQKPGKAPKLLIYSASSLYSGVPSRFSGSRSGTDFTLTISSLQPEDFATYYCQQPYYPLITFGQGTKVEIKR",Kd,[2],62 nM
"AMRA311-17 hIgG1 (antibody, V domains shown) VH: EVQLVESGGGLVQPGGSLRLSCAASGFTISSSSIHWVRQAPGKGLEWVASISSYSGSTYYADSVKGRFTISADTSKNTAYLQMNSLRAEDTAVYYCARYPYGSHVYTGLDYWGQGTLVTVSS VL: DIQMTQSPSSLSASVGDRVTITCRASQSVSSAVAWYQQKPGKAPKLLIYSASSLYSGVPSRFSGSRSGTDFTLTISSLQPEDFATYYCQQSSSSLITFGQGTKVEIKR",Kd,RAS-AMG510,180 nM
"AMRA311-16 hIgG1 (antibody, V domains shown) VH: EVQLVESGGGLVQPGGSLRLSCAASGFTISSSSIHWVRQAPGKGLEWVAYISSYSGYTYYADSVKGRFTISADTSKNTAYLQMNSLRAEDTAVYYCARYWYGHYHSYFGLDYWGQGTLVTVSS VL: DIQMTQSPSSLSASVGDRVTITCRASQSVSSAVAWYQQKPGKAPKLLIYSASSLYSGVPSRFSGSRSGTDFTLTISSLQPEDFATYYCQQSSSSLITFGQGTKVEIKR",Kd,RAS-AMG510,71 nM
